Assay results published in EP0528847B1.

Assays:
[1] = target: full-length human γ-interferon receptor, on cells (human) (UniProt P15260); assay: ¹²⁵I-IFN-γ binding to COS7 cells transfected with plasmid T886-5, Expt. 2'
[2] = target: full-length human γ-interferon receptor, on cells (human) (UniProt P15260); assay: ¹²⁵I-IFN-γ binding to COS7 cells transfected with plasmid T886-6, Expt. 3
[3] = target: full-length human γ-interferon receptor, on cells (human) (UniProt P15260); assay: ¹²⁵I-IFN-γ binding to COS7 cells transfected with plasmid T884-5, Expt. 1'
[4] = target: full-length human γ-interferon receptor, on cells (human) (UniProt P15260); assay: ¹²⁵I-IFN-γ binding to COS7 cells transfected with plasmid T884-5, Expt. 1
[5] = target: full-length human γ-interferon receptor, on cells (human) (UniProt P15260); assay: ¹²⁵I-IFN-γ binding to COS7 cells transfected with plasmid T886-5, Expt. 2
[6] = target: full-length human γ-interferon receptor, on cells (human) (UniProt P15260); assay: ¹²⁵I-IFN-γ binding to COS7 cells transfected with plasmid T886-6, Expt. 3'

UniProt P15260, sequence (P15260 18-489): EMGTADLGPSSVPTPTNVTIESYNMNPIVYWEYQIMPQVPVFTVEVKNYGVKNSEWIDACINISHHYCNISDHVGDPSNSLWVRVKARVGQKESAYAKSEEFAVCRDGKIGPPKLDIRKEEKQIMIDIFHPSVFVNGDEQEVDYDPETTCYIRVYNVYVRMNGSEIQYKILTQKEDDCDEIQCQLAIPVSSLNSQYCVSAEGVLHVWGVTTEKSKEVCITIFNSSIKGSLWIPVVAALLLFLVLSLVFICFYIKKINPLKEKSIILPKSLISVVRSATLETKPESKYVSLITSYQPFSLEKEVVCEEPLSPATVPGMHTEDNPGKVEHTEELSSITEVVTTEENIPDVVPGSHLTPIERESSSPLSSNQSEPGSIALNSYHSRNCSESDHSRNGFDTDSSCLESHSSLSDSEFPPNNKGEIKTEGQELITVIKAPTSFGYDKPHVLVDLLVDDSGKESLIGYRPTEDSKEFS

Background Binding (1), ¹²⁵I IFN-γ cpm bound at 0.1 µg/ml unlabeled IFN-γ [1]: 2400 cpm | Background Binding (2), ¹²⁵I IFN-γ cpm bound at 10 µg/ml unlabeled IFN-γ [1]: 198 cpm | Specific Binding (3) = (1) - (2) [1]: 2210 cpm | Background Binding (1), ¹²⁵I IFN-γ cpm bound at 0.1 µg/ml unlabeled IFN-γ [2]: 2530 cpm | Background Binding (2), ¹²⁵I IFN-γ cpm bound at 10 µg/ml unlabeled IFN-γ [2]: 231 cpm | Specific Binding (3) = (1) - (2) [2]: 2300 cpm | Background Binding (1), ¹²⁵I IFN-γ cpm bound at 0.1 µg/ml unlabeled IFN-γ [3]: 1560 cpm | Background Binding (2), ¹²⁵I IFN-γ cpm bound at 10 µg/ml unlabeled IFN-γ [3]: 77.8 cpm | Specific Binding (3) = (1) - (2) [3]: 1480 cpm | Background Binding (1), ¹²⁵I IFN-γ cpm bound at 0.1 µg/ml unlabeled IFN-γ [4]: 1830 cpm | Background Binding (2), ¹²⁵I IFN-γ cpm bound at 10 µg/ml unlabeled IFN-γ [4]: 130 cpm | Specific Binding (3) = (1) - (2) [4]: 1700 cpm | Background Binding (1), ¹²⁵I IFN-γ cpm bound at 0.1 µg/ml unlabeled IFN-γ [5]: 1980 cpm | Background Binding (2), ¹²⁵I IFN-γ cpm bound at 10 µg/ml unlabeled IFN-γ [5]: 150 cpm | Specific Binding (3) = (1) - (2) [5]: 1830 cpm | Background Binding (1), ¹²⁵I IFN-γ cpm bound at 0.1 µg/ml unlabeled IFN-γ [6]: 2090 cpm | Background Binding (2), ¹²⁵I IFN-γ cpm bound at 10 µg/ml unlabeled IFN-γ [6]: 69.8 cpm | Specific Binding (3) = (1) - (2) [6]: 2020 cpm
Substance: human γ-interferon (amino acids 4-137 of the mature protein), produced in E. coli 294 from plasmid pGIF4-137 (from UniProt P01579 4-137) (ligand)
